Test results published in the supplement of paper PMC10065799, “High-throughput profiling of sequence recognition by tyrosine kinases and SH2 domains using bacterial peptide display” (eLife, 2023).

Legend:
[1] = molecular target: MERTK (UniProt Q12866); experiment: phosphorylation enrichment, bacterial display (enrichment ratio); higher = better substrate or ligand; peptides without Tyr show the background
[2] = molecular target: Fyn (UniProt P06241); experiment: as above
[3] = system: c-Abl (mouse); experiment: as above
[4] = molecular target: EPHB2 (UniProt P29323); experiment: as above
Chain of EPHB2 (P29323 whole entry, looked up): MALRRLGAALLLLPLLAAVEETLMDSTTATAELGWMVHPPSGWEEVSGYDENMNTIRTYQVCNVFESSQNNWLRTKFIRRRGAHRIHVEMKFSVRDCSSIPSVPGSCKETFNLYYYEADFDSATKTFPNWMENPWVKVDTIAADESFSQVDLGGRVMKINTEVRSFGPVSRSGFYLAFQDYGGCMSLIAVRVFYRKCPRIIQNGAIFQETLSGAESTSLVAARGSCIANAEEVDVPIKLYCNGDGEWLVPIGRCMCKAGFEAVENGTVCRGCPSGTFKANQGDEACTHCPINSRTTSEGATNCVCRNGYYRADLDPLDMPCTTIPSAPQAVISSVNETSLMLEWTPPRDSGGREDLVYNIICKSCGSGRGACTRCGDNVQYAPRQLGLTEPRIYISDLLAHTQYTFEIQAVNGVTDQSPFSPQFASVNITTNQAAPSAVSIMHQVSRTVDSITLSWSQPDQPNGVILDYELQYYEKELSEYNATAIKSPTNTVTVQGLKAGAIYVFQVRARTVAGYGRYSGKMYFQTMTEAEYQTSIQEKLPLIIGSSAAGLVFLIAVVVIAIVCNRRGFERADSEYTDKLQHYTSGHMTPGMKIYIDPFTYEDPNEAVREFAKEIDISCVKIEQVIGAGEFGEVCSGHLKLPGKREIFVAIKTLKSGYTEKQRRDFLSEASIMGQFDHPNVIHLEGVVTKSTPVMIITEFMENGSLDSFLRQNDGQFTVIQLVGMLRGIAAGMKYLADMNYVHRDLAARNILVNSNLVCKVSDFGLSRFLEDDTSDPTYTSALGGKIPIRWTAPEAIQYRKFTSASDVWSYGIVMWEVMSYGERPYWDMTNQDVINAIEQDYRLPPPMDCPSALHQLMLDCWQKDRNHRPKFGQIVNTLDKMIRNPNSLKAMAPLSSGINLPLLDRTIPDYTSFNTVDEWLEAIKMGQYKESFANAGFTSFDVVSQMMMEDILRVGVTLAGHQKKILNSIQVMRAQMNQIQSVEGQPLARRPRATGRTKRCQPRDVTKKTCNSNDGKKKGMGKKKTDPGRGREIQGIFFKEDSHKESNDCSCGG

[5] = molecular target: Fes (UniProt P07332); experiment: as above
[6] = system: c-Src; experiment: as above
[7] = molecular target: Hck (UniProt P08631); experiment: as above
Chain of Hck (P08631 whole entry, looked up): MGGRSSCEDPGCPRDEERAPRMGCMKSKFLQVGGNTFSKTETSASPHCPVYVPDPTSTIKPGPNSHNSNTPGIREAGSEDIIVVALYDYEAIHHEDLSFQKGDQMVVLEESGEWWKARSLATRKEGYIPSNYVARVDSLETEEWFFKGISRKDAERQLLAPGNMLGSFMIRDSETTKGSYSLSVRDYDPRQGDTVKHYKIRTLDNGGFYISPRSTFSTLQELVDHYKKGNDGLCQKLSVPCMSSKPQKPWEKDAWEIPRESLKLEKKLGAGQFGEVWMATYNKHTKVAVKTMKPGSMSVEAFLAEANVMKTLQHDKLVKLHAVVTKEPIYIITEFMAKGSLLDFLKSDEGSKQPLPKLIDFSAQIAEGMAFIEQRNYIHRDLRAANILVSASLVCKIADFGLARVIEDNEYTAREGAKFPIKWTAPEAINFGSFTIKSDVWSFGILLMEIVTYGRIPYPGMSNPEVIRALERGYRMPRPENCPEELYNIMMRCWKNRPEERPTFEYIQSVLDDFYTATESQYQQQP

[8] = molecular target: EPHB1 (UniProt P54762); experiment: as above
Chain of EPHB1 (P54762 whole entry, looked up): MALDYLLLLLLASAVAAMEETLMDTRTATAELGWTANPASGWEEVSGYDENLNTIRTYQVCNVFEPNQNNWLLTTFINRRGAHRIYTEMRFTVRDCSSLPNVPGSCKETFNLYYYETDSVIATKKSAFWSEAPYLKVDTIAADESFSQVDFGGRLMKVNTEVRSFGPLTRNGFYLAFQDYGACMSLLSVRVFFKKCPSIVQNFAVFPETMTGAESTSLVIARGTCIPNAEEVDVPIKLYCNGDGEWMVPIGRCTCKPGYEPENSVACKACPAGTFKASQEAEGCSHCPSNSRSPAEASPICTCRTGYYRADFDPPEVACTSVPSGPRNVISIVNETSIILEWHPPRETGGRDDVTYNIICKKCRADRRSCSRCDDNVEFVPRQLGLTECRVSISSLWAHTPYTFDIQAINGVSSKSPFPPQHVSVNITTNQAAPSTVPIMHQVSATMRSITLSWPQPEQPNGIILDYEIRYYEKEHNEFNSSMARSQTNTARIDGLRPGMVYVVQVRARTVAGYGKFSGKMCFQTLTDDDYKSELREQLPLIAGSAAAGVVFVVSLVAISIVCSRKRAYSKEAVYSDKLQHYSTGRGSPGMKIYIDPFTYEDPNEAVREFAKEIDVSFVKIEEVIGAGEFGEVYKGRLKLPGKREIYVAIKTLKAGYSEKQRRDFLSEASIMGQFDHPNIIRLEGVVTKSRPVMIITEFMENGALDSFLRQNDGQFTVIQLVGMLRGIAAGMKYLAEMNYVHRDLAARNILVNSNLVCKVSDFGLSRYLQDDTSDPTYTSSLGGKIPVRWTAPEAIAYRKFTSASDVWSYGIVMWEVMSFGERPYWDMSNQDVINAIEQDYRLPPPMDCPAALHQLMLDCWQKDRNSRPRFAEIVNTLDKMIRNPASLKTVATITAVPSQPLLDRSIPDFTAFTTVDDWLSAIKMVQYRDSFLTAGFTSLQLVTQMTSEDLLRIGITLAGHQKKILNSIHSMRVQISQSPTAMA

[9] = system: Fer (mouse); experiment: as above
[10] = molecular target: Jak2 (UniProt O60674); experiment: as above
Chain of Jak2 (O60674 whole entry, looked up): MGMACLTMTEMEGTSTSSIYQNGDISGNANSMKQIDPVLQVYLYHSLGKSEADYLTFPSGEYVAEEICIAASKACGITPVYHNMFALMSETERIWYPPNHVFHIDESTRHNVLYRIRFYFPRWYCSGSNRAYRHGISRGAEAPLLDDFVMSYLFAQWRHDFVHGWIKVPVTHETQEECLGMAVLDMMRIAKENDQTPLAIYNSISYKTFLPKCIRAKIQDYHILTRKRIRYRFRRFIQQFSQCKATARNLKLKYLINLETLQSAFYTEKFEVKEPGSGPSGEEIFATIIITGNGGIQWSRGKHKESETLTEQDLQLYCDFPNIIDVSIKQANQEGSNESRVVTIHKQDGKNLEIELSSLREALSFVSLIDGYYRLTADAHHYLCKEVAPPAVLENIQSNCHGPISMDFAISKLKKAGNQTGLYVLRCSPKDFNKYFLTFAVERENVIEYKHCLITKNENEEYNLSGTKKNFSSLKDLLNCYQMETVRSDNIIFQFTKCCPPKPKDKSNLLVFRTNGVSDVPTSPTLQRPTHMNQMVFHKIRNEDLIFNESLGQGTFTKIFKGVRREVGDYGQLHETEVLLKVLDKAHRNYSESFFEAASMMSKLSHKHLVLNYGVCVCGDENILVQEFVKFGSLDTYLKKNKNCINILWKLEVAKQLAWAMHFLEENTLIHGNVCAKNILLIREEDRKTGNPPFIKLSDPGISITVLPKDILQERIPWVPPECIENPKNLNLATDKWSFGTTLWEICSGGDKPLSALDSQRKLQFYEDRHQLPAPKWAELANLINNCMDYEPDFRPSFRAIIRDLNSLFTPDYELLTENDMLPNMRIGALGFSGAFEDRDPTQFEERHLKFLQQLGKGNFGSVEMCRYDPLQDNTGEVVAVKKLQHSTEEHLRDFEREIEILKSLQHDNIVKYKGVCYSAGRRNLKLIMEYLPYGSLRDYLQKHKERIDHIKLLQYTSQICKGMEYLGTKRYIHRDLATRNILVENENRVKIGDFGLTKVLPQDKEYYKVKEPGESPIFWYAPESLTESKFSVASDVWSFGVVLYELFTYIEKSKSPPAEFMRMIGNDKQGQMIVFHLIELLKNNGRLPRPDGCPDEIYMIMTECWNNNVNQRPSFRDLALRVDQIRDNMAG

[11] = molecular target: FGFR3 (UniProt P22607); experiment: as above
Chain of FGFR3 (P22607 whole entry, looked up): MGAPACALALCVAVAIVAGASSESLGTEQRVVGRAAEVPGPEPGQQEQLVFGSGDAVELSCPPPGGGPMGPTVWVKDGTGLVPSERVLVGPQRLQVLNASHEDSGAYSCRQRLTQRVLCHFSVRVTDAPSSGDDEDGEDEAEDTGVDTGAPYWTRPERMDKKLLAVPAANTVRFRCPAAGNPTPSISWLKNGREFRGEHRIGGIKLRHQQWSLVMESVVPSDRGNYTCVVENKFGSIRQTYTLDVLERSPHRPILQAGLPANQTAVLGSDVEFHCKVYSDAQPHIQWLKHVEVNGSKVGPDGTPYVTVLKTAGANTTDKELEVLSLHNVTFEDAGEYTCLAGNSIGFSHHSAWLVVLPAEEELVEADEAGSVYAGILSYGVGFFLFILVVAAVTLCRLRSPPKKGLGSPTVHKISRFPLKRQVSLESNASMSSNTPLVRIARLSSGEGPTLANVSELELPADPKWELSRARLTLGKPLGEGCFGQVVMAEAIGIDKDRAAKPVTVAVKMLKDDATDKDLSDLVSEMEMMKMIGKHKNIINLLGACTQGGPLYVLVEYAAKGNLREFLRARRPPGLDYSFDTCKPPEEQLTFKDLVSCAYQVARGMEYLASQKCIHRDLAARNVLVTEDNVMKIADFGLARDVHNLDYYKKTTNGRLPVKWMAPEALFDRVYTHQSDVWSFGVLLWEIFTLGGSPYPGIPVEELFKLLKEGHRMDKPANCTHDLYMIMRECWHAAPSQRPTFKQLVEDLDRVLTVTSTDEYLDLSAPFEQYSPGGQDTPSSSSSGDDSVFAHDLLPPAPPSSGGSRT

[12] = system: AncSZ; experiment: as above
[13] = molecular target: FGFR1 (UniProt P11362); experiment: as above
[14] = molecular target: c-Src SH2; experiment: SH2 binding enrichment of the phosphorylated peptide, bacterial display (enrichment ratio); higher = better substrate or ligand; peptides without Tyr show the background
[15] = molecular target: Grb2 SH2 (UniProt P62993); experiment: as above
[16] = molecular target: SHP2-C SH2; experiment: as above
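Wherever SH2 binding enrichment of the phosphorylated peptide, bacterial display is given: peptide library displayed on the E. coli surface as eCPX fusions, selected cells deep-sequenced, score is each peptide's frequency after selection divided by its frequency in the input.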
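Wherever phosphorylation enrichment, bacterial display is given: 11-residue human phosphosite peptides and single-mutation variants displayed on the E. coli surface, counted by deep sequencing, each peptide's frequency after selection divided by its frequency in the unselected input library; frequency after pTyr selection over input frequency; kinase dosed for 20-30% of maximal phosphorylation in three min.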

Chain of Fyn (P06241 whole entry, looked up): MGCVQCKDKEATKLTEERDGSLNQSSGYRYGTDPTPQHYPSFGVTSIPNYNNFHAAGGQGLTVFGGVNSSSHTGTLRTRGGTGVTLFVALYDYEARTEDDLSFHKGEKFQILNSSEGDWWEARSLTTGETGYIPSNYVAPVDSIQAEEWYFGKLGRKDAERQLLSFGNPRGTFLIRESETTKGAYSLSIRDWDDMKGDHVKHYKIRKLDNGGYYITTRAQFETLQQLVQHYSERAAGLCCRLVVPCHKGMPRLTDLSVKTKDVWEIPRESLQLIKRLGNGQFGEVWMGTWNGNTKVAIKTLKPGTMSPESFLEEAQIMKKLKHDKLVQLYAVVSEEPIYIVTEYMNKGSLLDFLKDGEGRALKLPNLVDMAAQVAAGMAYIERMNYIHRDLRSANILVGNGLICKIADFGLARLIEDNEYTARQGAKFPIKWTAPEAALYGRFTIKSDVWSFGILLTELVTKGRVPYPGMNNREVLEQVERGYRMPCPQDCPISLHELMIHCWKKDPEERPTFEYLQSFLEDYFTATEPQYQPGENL

| Sequence | SH2 binding enrichment [14] | SH2 binding enrichment [15] | SH2 binding enrichment [16] | phosphorylation enrichment [1] | phosphorylation enrichment [2] | phosphorylation enrichment [3] | phosphorylation enrichment [4] | phosphorylation enrichment [5] | phosphorylation enrichment [6] | phosphorylation enrichment [7] | phosphorylation enrichment [8] | phosphorylation enrichment [9] | phosphorylation enrichment [10] | phosphorylation enrichment [11] | phosphorylation enrichment [12] | phosphorylation enrichment [13] |
| --- | --- | --- | --- | --- | --- | --- | --- | --- | --- | --- | --- | --- | --- | --- | --- | --- |
| EQLQSYQAEII [KRT33A_Y268] | 0.472 | 0.708 | 0.683 | 0.45 | 0.516 | 0.988 | 0.571 | 1.16 | 0.555 | 0.518 | 0.524 | 0.526 | 1.15 | 0.821 | 1.12 | 0.54 |
| TTKAKYKTPIY [PLD2_Y573_T577I] | 0.793 | 0.908 | 0.775 | 0.574 | 0.771 | 0.695 | 0.46 | 0.928 | 0.541 | 0.789 | 0.542 | 0.459 | 0.587 | 0.596 | 0.823 | 0.46 |
| AGQEDCDRLRP [CDC42_Y64_Y64C] | 0.548 | 1.07 | 0.945 | 0.364 | 0.436 | 0.609 | 0.444 | 0.882 | 0.427 | 0.424 | 0.552 | 0.439 | 0.682 | 0.586 | 0.784 | 0.476 |
| NTYEKYWPFYQ [GATM_Y103] | 1.24 | 1.14 | 0.762 | 5.5 | 5.72 | 1.17 | 8.15 | 2.3 | 5 | 4.39 | 6.55 | 1.92 | 1.93 | 1.89 | 1.41 | 2.76 |
| LQLLGHRPVYS [CHST6_Y358_Y358H] | 0.733 | 1.22 | 0.935 | 0.374 | 0.535 | 0.418 | 0.47 | 0.701 | 0.381 | 0.512 | 0.462 | 0.479 | 0.552 | 0.506 | 0.615 | 0.425 |
| SIKNKYVTALY [KCNH2_Y611_D609N] | 0.381 | 0.909 | 0.932 | 0.528 | 0.359 | 0.454 | 0.498 | 0.592 | 0.461 | 0.47 | 0.349 | 0.518 | 0.605 | 0.598 | 0.559 | 0.409 |
| PEAALYGRFTI [FYN_Y440] | 0.418 | 0.694 | 0.757 | 1.9 | 7.72 | 2.83 | 0.514 | 1.11 | 6.87 | 6.52 | 0.59 | 1.67 | 1.38 | 0.645 | 0.875 | 0.646 |
| IHADIYRWFNI [MARS1_Y344] | 1.19 | 1.65 | 1.17 | 5 | 2.23 | 6.74 | 0.6 | 1.42 | 3.77 | 2.14 | 0.716 | 8.95 | 1.12 | 6.99 | 1.22 | 9.43 |

Now from value to sequence, other results behind:

| SH2 binding enrichment [14] | SH2 binding enrichment [15] | SH2 binding enrichment [16] | Sequence | phosphorylation enrichment [1] | phosphorylation enrichment [2] | phosphorylation enrichment [3] | phosphorylation enrichment [4] | phosphorylation enrichment [5] | phosphorylation enrichment [6] | phosphorylation enrichment [7] | phosphorylation enrichment [8] | phosphorylation enrichment [9] | phosphorylation enrichment [10] | phosphorylation enrichment [11] | phosphorylation enrichment [12] | phosphorylation enrichment [13] |
| --- | --- | --- | --- | --- | --- | --- | --- | --- | --- | --- | --- | --- | --- | --- | --- | --- |
| 0.703 | 0.8 | 0.791 | RKEAQYMLENE [SLC16A6_Y224] | 0.619 | 0.642 | 0.997 | 0.523 | 1.32 | 0.899 | 0.803 | 0.605 | 0.445 | 1.22 | 0.827 | 1.52 | 0.503 |
| 0.962 | 1.08 | 0.885 | VHKKGYNKLNQ [ZNF676_Y98_E96K] | 0.384 | 0.403 | 0.645 | 0.374 | 0.66 | 0.488 | 0.43 | 0.48 | 0.439 | 0.569 | 0.516 | 0.408 | 0.494 |
| 0.864 | 0.964 | 0.843 | FSQNIYIQNRN [PKP2_Y631_YF] | 0.383 | 0.447 | 0.459 | 0.425 | 0.62 | 0.45 | 0.589 | 0.396 | 0.418 | 0.517 | 0.473 | 0.619 | 0.54 |
| 0.882 | 0.95 | 0.927 | VNTTLYEKFTF [TEK_Y1108_YF] | 4.71 | 2.48 | 0.976 | 0.748 | 0.989 | 2.89 | 4.13 | 1.1 | 8.38 | 0.891 | 0.677 | 0.886 | 0.456 |
| 4.65 | 1.38 | 0.892 | QNTGVYYDLYG [PTPN11_Y62_D61V] | 10.9 | 8.43 | 1.23 | 5.61 | 1.49 | 7.18 | 7.99 | 6.99 | 3.07 | 2.61 | 14.5 | 2 | 16.3 |
| 0.529 | 0.941 | 0.85 | RRSQSYIPTSG [PLEKHA2_Y185] | 0.59 | 0.707 | 0.497 | 0.729 | 0.709 | 0.682 | 0.473 | 0.372 | 0.354 | 0.649 | 0.455 | 0.663 | 0.615 |
| 0.767 | 0.963 | 0.868 | ASLEAYCKHKF [RXRA_Y403_YF] | 0.556 | 0.468 | 0.687 | 0.66 | 1.07 | 0.497 | 0.519 | 0.572 | 0.585 | 0.697 | 0.915 | 0.83 | 0.654 |
| 0.537 | 0.66 | 0.554 | SAGSSYSISSI [PAX5_Y179_G183S] | 0.492 | 0.434 | 0.583 | 0.451 | 0.686 | 0.42 | 0.431 | 0.41 | 0.385 | 0.697 | 0.533 | 0.65 | 0.368 |
| 1.17 | 1.2 | 1.24 | KGKLIYLLGDS [NXPE1_Y350] | 0.343 | 0.551 | 0.529 | 0.42 | 0.922 | 0.661 | 0.478 | 0.391 | 0.471 | 0.639 | 0.521 | 0.803 | 0.434 |
